Target: T1, human PD-L2 ectodomain (human, UniProt Q9BQ51 20-220)
T1 sequence: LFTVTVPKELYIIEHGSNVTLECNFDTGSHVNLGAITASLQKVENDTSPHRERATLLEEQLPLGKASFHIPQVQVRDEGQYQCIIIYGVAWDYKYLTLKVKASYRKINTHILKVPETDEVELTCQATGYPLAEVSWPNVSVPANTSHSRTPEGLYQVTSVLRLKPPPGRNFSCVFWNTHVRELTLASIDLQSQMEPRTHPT
Assay: BLI

Kd: 2.6 nM
B1: human PD-1 triple mutant (N74G T76P A132V), PD-1-Fc (Fc fusion)
chain: LDSPDRPWNPPTFSPALLVVTEGDNATFTCSFSNTSESFVLNWYRMSPSGQPDKLAAFPEDRSQPGQDCRFRVTQLPNGRDFHMSVVRARRNDSGTYLCGAISLAPKVQIKESLRAELRVTERRAEVPTAHPSPSPRPAGQFQTLV
